PMC4147282, “Aromatic Amino Acid Mutagenesis at the Substrate Binding Pocket of Yarrowia lipolytica Lipase Lip2 Affects Its Activity and Thermostability” (The Scientific World Journal, 2014)

Substrate: CCCCCCCCCCCCCCCC(=O)Oc1ccc([N+](=O)[O-])cc1
Test: purified protein
Assay type: biochemical, Yarrowia lipolytica
Conditions: 50 mmol PBS, pH 8.0, 40°C, substrate 0.2–1 mmol

B1: YLLip2 (lipase2 from Yarrowia lipolytica) (Yarrowia lipolytica) (protein)
chain: VYTSTETSHIDQESYNFFEKYARLANIGYCVGPGTKIFKPFNCGLQCAHFPNVELIEEFHDPRLIFDVSGYLAVDHASKQIYLVIRGTHSLEDVITDIRIMQAPLTNFDLAANISSTATCDDCLVHNGFIQSYNNTYNQIGPKLDSVIEQYPDYQIAVTGHSLGGAAALLFGINLKVNGHDPLVVTLGQPIVGNAGFANWVDKLFFGQENPDVSKVSKDRKLYRITHRGDIVPQVPFWDGYQHCSGEVFIDWPLIHPPLSNVVMCQGQSNKQCSAGNTLLQQVNVIGNHLQYFVTEGVCGI
notes: mature YLLip2, own prepro replaced by XPR2pre secretion signal, N-terminal 6xHis tag kept (HHHHHH-VYTST...); secreted from Y. lipolytica JMY1212 (plasmid pYL-H6-mYLLip2); IMAC purified; approx. 38 kDa on SDS-PAGE
- kcat: 157 ± 1 s⁻¹
